B1: ERR3: Estrogen Related Receptor γ (NR3B3, ERRg), cDNA driver (protein, UniProt P62508 1-458, looked up)
Estrogen-related receptor …: MDSVELCLPESFSLHYEEELLCRMSNKDRHIDSSCSSFIKTEPSSPASLTDSVNHHSPGGSSDASGSYSSTMNGHQNGLDSPPLYPSAPILGGSGPVRKLYDDCSSTIVEDPQTKCEYMLNSMPKRLCLVCGDIASGYHYGVASCEACKAFFKRTIQGNIEYSCPATNECEITKRRRKSCQACRFMKCLKVGMLKEGVRLDRVRGGRQKYKRRIDAENSPYLNPQLVQPAKKPYNKIVSHLLVAEPEKIYAMPDPTVPDSDIKALTTLCDLADRELVVIIGWAKHIPGFSTLSLADQMSLLQSAWMEILILGVVYRSLSFEDELVYADDYIMDEDQSKLAGLLDLNNAILQLVKKYKSMKLEKEEFVTLKAIALANSDSMHIEDVEAVQKLQDVLHEALQDYEAGQHMEDPRRAGKMLMTLPLLRQTSTKAVQHFYNIKLEGKVPMHKLFLEMLEAKV
B2: CTF1: COUP-TF1 (NR2F1), cDNA driver (protein, UniProt P10589 1-423, looked up)
COUP transcription factor 1: MAMVVSSWRDPQDDVAGGNPGGPNPAAQAARGGGGGAGEQQQQAGSGAPHTPQTPGQPGAPATPGTAGDKGQGPPGSGQSQQHIECVVCGDKSSGKHYGQFTCEGCKSFFKRSVRRNLTYTCRANRNCPIDQHHRNQCQYCRLKKCLKVGMRREAVQRGRMPPTQPNPGQYALTNGDPLNGHCYLSGYISLLLRAEPYPTSRYGSQCMQPNNIMGIENICELAARLLFSAVEWARNIPFFPDLQITDQVSLLRLTWSELFVLNAAQCSMPLHVAPLLAAAGLHASPMSADRVVAFMDHIRIFQEQVEKLKALHVDSAEYSCLKAIVLFTSDACGLSDAAHIESLQEKSQCALEEYVRSQYPNQPSRFGKLLLRLPSLRTVSSSVIEQLFFVRLVGKTPIETLIRDMLLSGSSFNWPYMSIQCS
B3: TR4: Testicular Orphan Nuclear Receptor 4 (NR2C2), cDNA driver (protein, UniProt P49116 1-596, looked up)
Nuclear receptor subfamily 2 …: MTSPSPRIQIISTDSAVASPQRIQIVTDQQTGQKIQIVTAVDASGSPKQQFILTSPDGAGTGKVILASPETSSAKQLIFTTSDNLVPGRIQIVTDSASVERLLGKTDVQRPQVVEYCVVCGDKASGRHYGAVSCEGCKGFFKRSVRKNLTYSCRSNQDCIINKHHRNRCQFCRLKKCLEMGMKMESVQSERKPFDVQREKPSNCAASTEKIYIRKDLRSPLIATPTFVADKDGARQTGLLDPGMLVNIQQPLIREDGTVLLATDSKAETSQGALGTLANVVTSLANLSESLNNGDTSEIQPEDQSASEITRAFDTLAKALNTTDSSSSPSLADGIDTSGGGSIHVISRDQSTPIIEVEGPLLSDTHVTFKLTMPSPMPEYLNVHYICESASRLLFLSMHWARSIPAFQALGQDCNTSLVRACWNELFTLGLAQCAQVMSLSTILAAIVNHLQNSIQEDKLSGDRIKQVMEHIWKLQEFCNSMAKLDIDGYEYAYLKAIVLFSPDHPGLTSTSQIEKFQEKAQMELQDYVQKTYSEDTYRLARILVRLPALRLMSSNITEELFFTGLIGNVSIDSIIPYILKMETAEYNGQITGASL
B4: Erb: Estrogen Receptor β (NR3A2, ERb), cDNA driver (protein, UniProt Q92731 1-530, looked up)
Estrogen receptor beta: MDIKNSPSSLNSPSSYNCSQSILPLEHGSIYIPSSYVDSHHEYPAMTFYSPAVMNYSIPSNVTNLEGGPGRQTTSPNVLWPTPGHLSPLVVHRQLSHLYAEPQKSPWCEARSLEHTLPVNRETLKRKVSGNRCASPVTGPGSKRDAHFCAVCSDYASGYHYGVWSCEGCKAFFKRSIQGHNDYICPATNQCTIDKNRRKSCQACRLRKCYEVGMVKCGSRRERCGYRLVRRQRSADEQLHCAGKAKRSGGHAPRVRELLLDALSPEQLVLTLLEAEPPHVLISRPSAPFTEASMMMSLTKLADKELVHMISWAKKIPGFVELSLFDQVRLLESCWMEVLMMGLMWRSIDHPGKLIFAPDLVLDRDEGKCVEGILEIFDMLLATTSRFRELKLQHKEYLCVKAMILLNSSMYPLVTATQDADSSRKLAHLLNAVTDALVWVIAKSGISSQQQSMRLANLLMLLSHVRHASNKGMEHLLNMKCKNVVPVYDLLLEMLNAHVLRGCKSSITGSECSPAEDSKSKEGSQNPQSQ
B5: ERR2: Estrogen Related Receptor β (NR3B2, ERRb), cDNA driver (protein, UniProt O95718 1-433, looked up)
Steroid hormone receptor ERR2: MSSDDRHLGSSCGSFIKTEPSSPSSGIDALSHHSPSGSSDASGGFGLALGTHANGLDSPPMFAGAGLGGTPCRKSYEDCASGIMEDSAIKCEYMLNAIPKRLCLVCGDIASGYHYGVASCEACKAFFKRTIQGNIEYSCPATNECEITKRRRKSCQACRFMKCLKVGMLKEGVRLDRVRGGRQKYKRRLDSESSPYLSLQISPPAKKPLTKIVSYLLVAEPDKLYAMPPPGMPEGDIKALTTLCDLADRELVVIIGWAKHIPGFSSLSLGDQMSLLQSAWMEILILGIVYRSLPYDDKLVYAEDYIMDEEHSRLAGLLELYRAILQLVRRYKKLKVEKEEFVTLKALALANSDSMYIEDLEAVQKLQDLLHEALQDYELSQRHEEPWRTGKLLLTLPLLRQTAAKAVQHFYSVKLQGKVPMHKLFLEMLEAKV

tested on: mUCP1 promoter; test: NHR-promoter luciferase screen, mUCP1 promoter; format: cell-based, mouse; details: mUCP1 promoter reporter; co-transfected HR, with or without its ligand
How it was run: (§1)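 CV-1 cells were co-transfected with 50 ng NHR (homodimer or NHR/RXR heterodimer), 100 ng promoter-luciferase construct and 50 ng LacZ. Luciferase was normalized to LacZ and to a no-NHR/no-ligand control.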

Row | Molecule | Luc. act., normalized to lacZ
1 | B1 | 26.5
2 | B2 | 1.8
3 | B3 | 26.4
4 | B4 | 3.3
5 | B5 | 13.1

same assay, conditions: mUCP1 promoter reporter; co-transfected HR, with or without its ligand; relative to control

Row | Molecule | Normalized Luc. act., normalized to control
6 | B1 | 6.0
7 | B2 | 0.4
8 | B3 | 5.9
9 | B4 | 0.8
10 | B5 | 3.0

same assay, conditions: mUCP! promoter-luciferase, CV-1 cells, NHR +/- ligand, control = 1.00

Row | Molecule | luciferase activity normalized to lacZ activity and to a control, mUCP!
11 | B1 | 5.98
12 | B2 | 0.41
13 | B3 | 5.94
14 | B4 | 0.75
15 | B5 | 2.95

tested on: mUCP3 promoter; test: NHR-promoter luciferase screen, mUCP3 promoter; format: cell-based, mouse; details: mUCP3 promoter reporter; HR without or with its ligand; relative to control
How it was run: as §1

Row | Molecule | Normalized Luc. act., normalized to control
16 | B1 | 3.1
17 | B2 | 0.9
18 | B3 | 3.2
19 | B4 | 1.3
20 | B5 | 3.3

same assay, conditions: mUCP3 promoter reporter; hormone receptor (HR) without or with its ligand

Row | Molecule | Luc. act., normalized to lacZ
21 | B1 | 2.1
22 | B2 | 0.6
23 | B3 | 2.2
24 | B4 | 0.9
25 | B5 | 2.2

same assay, conditions: transcription factor +/- ligand; control = 1.00

Row | Molecule | mUCP3 promoter reporter activity
26 | B1 | 3.06
27 | B2 | 0.93
28 | B3 | 3.19
29 | B4 | 1.28
30 | B5 | 3.32

tested on: hPOMC promoter; test: NHR-promoter luciferase screen, hPOMC promoter; format: cell-based, human; details: hPOMC promoter-luciferase, NHR +/- ligand, control = 1.0
How it was run: as §1

Row | Molecule | luciferase/LacZ, hPOMC (selected results)
31 | B1 | 4.1
32 | B3 | 11.8

same assay, conditions: hPOMC promoter; HR/ligand component

Row | Molecule | Luc. act., normalized to lacZ | Normalized Luc. act., normalized to control
33 | B1 | 17.6 | 4.1
34 | B2 | – | 0.0
35 | B3 | 50.7 | 11.8
36 | B4 | 3.2 | 0.7
37 | B5 | 11.6 | 2.7

same assay, conditions: transcription factor +/- ligand; control = 1.00

Row | Molecule | hPOMC promoter reporter activity
38 | B1 | 4.09
39 | B2 | 0.00
40 | B3 | 11.80
41 | B4 | 0.74
42 | B5 | 2.70

tested on: MCP-1 promoter; test: NHR-promoter luciferase screen, MCP-1 promoter; format: cell-based; details: MCP-1 promoter reporter; HR without or with its ligand; relative to control
How it was run: as §1

Row | Molecule | Normalized Luc. act., normalized to control
43 | B1 | 4.6
44 | B2 | 0.0
45 | B3 | 2.1
46 | B4 | 1.4
47 | B5 | 8.8

same assay, conditions: MCP-1 promoter reporter; hormone receptor (HR) without or with its ligand

Row | Molecule | Luc. act., normalized to lacZ
48 | B1 | 487.3
49 | B3 | 229.9
50 | B4 | 146.9
51 | B5 | 946.7

same assay, conditions: transcription factor +/- ligand; control = 1.00

Row | Molecule | mMCP-1 promoter reporter activity
52 | B1 | 4.55
53 | B2 | 0.00
54 | B3 | 2.15
55 | B4 | 1.37
56 | B5 | 8.84

tested on: mPgc1b promoter; test: NHR-promoter luciferase screen, mPgc1b promoter; format: cell-based, mouse; details: PGC1b promoter reporter; co-transfected HR, without or with its ligand
How it was run: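 Luciferase reporter read-out after co-expression in CV-1 cells of V5H6-tagged receptor (alone or with RXR), the promoter construct and LacZ. Values are luciferase/LacZ relative to a control lacking NHR or ligand; orphan receptors tested ligand-free.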

Row | Molecule | Luc. act., normalized to lacZ
57 | B1 | 20.1
58 | B2 | 6.7
59 | B3 | 17.3
60 | B4 | 9.2
61 | B5 | 12.7

same assay, conditions: PGC1b promoter reporter; co-transfected HR, without or with its ligand; relative to control

Row | Molecule | Normalized Luc. act., normalized to control
62 | B1 | 1.7
63 | B2 | 0.6
64 | B3 | 1.5
65 | B4 | 0.8
66 | B5 | 1.1

same assay, conditions: mPgc1b promoter-luciferase, CV-1 cells, NHR +/- ligand, control = 1.00

Row | Molecule | luciferase activity normalized to lacZ activity and to a control, mPgc1b
67 | B1 | 1.70
68 | B2 | 0.57
69 | B3 | 1.46
70 | B4 | 0.77
71 | B5 | 1.07

tested on: hCAR promoter; test: NHR-promoter luciferase screen, hCAR promoter; format: cell-based, human; details: hCAR promoter-luciferase, CV-1 cells, NHR +/- ligand, control = 1.00
How it was run: as §1

Row | Molecule | luciferase activity normalized to lacZ activity and to a control, hCAR
72 | B1 | 1.34
73 | B2 | 0.14
74 | B3 | 3.15
75 | B4 | 0.81
76 | B5 | 0.77

same assay, conditions: hCAR promoter; HR/ligand component

Row | Molecule | Luc. act., normalized to lacZ | Normalized Luc. act., normalized to control
77 | B1 | 42.2 | 1.3
78 | B2 | 4.5 | 0.1
79 | B3 | 99.4 | 3.1
80 | B4 | 25.7 | 0.8
81 | B5 | 24.2 | 0.8

Reference: patent US20110263454A1, “Methods of Identifying Functional Characteristics of Promoters, Transcription Modifying Proteins and Transcription Modulating Agents” (Salk Institute for Biological Studies, priority 2008, published 2011)
